# Assay results: IntAct's records for PubMed 35512704
# B1: Speckle-type POZ protein (Homo sapiens), O43791 (parent)
# chain: MSRVPSPPPPAEMSSGPVAESWCYTQIKVVKFSYMWTINNFSFCREEMGEVIKSSTFSSGANDKLKWCLRVNPKGLDEESKDYLSLYLLLVSCPKSEVRAKFKFSILNAKGEETKAMESQRAYRFVQGKDWGFKKFIRRDFLLDEANGLLPDDKLTLFCEVSVVQDSVNISGQNTMNMVKVPECRLADELGGLWENSRFTDCCLCVAGQEFQAHKAILAARSPVFSAMFEHEMEESKKNRVEINDVEPEVFKEMMCFIYTGKAPNLDKMADDLLAAADKYALERLKVMCEDALCSNLSVENAAEILILADLHSADQLKTQAVDFINYHASDVLETSGWKSMVVSHPHLVAEAYRSLASAQCPFLGPPRKRLKQS
# Variants of: B1
# Details: with tfe2_human TCF3, P15923
# Sequence of tfe2_human TCF3, P15923 (P15923 whole entry): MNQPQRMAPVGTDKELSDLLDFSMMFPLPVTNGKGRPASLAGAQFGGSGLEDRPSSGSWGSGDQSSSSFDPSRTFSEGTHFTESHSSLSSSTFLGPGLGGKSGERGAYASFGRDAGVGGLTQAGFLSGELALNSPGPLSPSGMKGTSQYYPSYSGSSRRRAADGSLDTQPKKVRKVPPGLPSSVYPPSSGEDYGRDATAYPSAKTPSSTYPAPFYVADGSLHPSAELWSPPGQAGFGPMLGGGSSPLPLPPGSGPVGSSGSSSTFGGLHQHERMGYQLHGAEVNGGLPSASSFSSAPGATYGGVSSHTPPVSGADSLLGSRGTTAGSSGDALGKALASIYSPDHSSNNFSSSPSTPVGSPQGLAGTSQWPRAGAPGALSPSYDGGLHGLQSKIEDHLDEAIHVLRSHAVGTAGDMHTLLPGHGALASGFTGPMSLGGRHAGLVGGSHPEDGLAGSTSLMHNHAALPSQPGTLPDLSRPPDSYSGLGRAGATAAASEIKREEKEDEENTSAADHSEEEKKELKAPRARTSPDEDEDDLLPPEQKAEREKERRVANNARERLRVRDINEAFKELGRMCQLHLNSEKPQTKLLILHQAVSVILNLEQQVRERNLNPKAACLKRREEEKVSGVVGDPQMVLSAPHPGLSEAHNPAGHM
row,Variant,effect of a mutation on the interaction
1,MSRVPSPPPPAEMSSGPVAESWCYTQIKVVKFSYMWTINNFSFCREEMGEVIKSSTFSSGANDKLKWCLRVNPKGLDEESKDYLSLYLLLVSCPKSEVRAKCKFSILNAKGEETKAMESQRAYRFVQGKDWGFKKFIRRDFLLDEANGLLPDDKLTLFCEVSVVQDSVNISGQNTMNMVKVPECRLADELGGLWENSRFTDCCLCVAGQEFQAHKAILAARSPVFSAMFEHEMEESKKNRVEINDVEPEVFKEMMCFIYTGKAPNLDKMADDLLAAADKYALERLKVMCEDALCSNLSVENAAEILILADLHSADQLKTQAVDFINYHASDVLETSGWKSMVVSHPHLVAEAYRSLASAQCPFLGPPRKRLKQS [F102C],with no effect

# Variants of: B1
# Details: with tead1_human TEAD1, P28347
# Sequence of tead1_human TEAD1, P28347 (P28347 whole entry): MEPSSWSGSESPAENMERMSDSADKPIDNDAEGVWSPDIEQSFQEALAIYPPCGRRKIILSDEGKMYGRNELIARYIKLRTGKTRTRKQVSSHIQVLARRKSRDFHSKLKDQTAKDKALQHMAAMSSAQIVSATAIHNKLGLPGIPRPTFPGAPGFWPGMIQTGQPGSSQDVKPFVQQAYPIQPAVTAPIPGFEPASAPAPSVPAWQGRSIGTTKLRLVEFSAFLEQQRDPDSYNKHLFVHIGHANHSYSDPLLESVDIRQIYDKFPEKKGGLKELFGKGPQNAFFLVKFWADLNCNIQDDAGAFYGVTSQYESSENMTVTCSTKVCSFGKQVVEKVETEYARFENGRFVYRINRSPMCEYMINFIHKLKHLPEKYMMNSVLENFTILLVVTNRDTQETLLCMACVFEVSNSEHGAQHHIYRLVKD
row,Variant,effect of a mutation on the interaction
1,MSRVPSPPPPAEMSSGPVAESWCYTQIKVVKFSYMWTINNFSFCREEMGEVIKSSTFSSGANDKLKWCLRVNPKGLDEESKDYLSLYLLLVSCPKSEVRAKCKFSILNAKGEETKAMESQRAYRFVQGKDWGFKKFIRRDFLLDEANGLLPDDKLTLFCEVSVVQDSVNISGQNTMNMVKVPECRLADELGGLWENSRFTDCCLCVAGQEFQAHKAILAARSPVFSAMFEHEMEESKKNRVEINDVEPEVFKEMMCFIYTGKAPNLDKMADDLLAAADKYALERLKVMCEDALCSNLSVENAAEILILADLHSADQLKTQAVDFINYHASDVLETSGWKSMVVSHPHLVAEAYRSLASAQCPFLGPPRKRLKQS [F102C],with no effect

# Variants of: B1
# Details: with tead3_human TEAD3, Q99594
# Sequence of tead3_human TEAD3, Q99594 (Q99594 whole entry): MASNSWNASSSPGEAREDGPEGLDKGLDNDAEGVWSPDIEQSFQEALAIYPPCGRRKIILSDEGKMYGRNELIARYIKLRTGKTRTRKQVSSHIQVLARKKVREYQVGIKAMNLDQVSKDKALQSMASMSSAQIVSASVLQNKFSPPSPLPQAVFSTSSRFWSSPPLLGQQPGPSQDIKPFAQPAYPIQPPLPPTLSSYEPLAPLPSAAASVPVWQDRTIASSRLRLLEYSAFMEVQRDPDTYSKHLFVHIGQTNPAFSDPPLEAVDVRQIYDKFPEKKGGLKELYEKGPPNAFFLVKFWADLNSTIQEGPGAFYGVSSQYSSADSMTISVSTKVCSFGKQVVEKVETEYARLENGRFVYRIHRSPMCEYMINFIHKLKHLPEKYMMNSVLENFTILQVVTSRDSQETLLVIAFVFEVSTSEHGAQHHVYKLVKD
row,Variant,effect of a mutation on the interaction
1,MSRVPSPPPPAEMSSGPVAESWCYTQIKVVKFSYMWTINNFSFCREEMGEVIKSSTFSSGANDKLKWCLRVNPKGLDEESKDYLSLYLLLVSCPKSEVRAKCKFSILNAKGEETKAMESQRAYRFVQGKDWGFKKFIRRDFLLDEANGLLPDDKLTLFCEVSVVQDSVNISGQNTMNMVKVPECRLADELGGLWENSRFTDCCLCVAGQEFQAHKAILAARSPVFSAMFEHEMEESKKNRVEINDVEPEVFKEMMCFIYTGKAPNLDKMADDLLAAADKYALERLKVMCEDALCSNLSVENAAEILILADLHSADQLKTQAVDFINYHASDVLETSGWKSMVVSHPHLVAEAYRSLASAQCPFLGPPRKRLKQS [F102C],with no effect

# Variants of: B1
# Details: with tead4_human TEAD4, Q15561
# Sequence of tead4_human TEAD4, Q15561 (Q15561 whole entry): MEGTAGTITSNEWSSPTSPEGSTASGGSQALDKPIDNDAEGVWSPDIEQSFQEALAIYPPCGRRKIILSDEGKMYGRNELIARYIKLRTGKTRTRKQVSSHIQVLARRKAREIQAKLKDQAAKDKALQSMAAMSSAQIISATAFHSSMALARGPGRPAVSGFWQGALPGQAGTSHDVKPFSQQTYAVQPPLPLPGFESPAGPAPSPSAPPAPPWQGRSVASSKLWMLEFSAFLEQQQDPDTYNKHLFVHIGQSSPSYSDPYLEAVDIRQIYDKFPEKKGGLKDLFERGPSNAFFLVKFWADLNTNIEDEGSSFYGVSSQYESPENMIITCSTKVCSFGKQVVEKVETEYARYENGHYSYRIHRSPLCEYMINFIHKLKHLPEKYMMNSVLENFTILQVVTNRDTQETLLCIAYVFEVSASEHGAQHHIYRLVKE
row,Variant,effect of a mutation on the interaction
1,MSRVPSPPPPAEMSSGPVAESWCYTQIKVVKFSYMWTINNFSFCREEMGEVIKSSTFSSGANDKLKWCLRVNPKGLDEESKDYLSLYLLLVSCPKSEVRAKCKFSILNAKGEETKAMESQRAYRFVQGKDWGFKKFIRRDFLLDEANGLLPDDKLTLFCEVSVVQDSVNISGQNTMNMVKVPECRLADELGGLWENSRFTDCCLCVAGQEFQAHKAILAARSPVFSAMFEHEMEESKKNRVEINDVEPEVFKEMMCFIYTGKAPNLDKMADDLLAAADKYALERLKVMCEDALCSNLSVENAAEILILADLHSADQLKTQAVDFINYHASDVLETSGWKSMVVSHPHLVAEAYRSLASAQCPFLGPPRKRLKQS [F102C],with no effect

# Variants of: B1
# Details: with tgfr2_human TGFBR2, P37173
# Sequence of tgfr2_human TGFBR2, P37173 (P37173 whole entry): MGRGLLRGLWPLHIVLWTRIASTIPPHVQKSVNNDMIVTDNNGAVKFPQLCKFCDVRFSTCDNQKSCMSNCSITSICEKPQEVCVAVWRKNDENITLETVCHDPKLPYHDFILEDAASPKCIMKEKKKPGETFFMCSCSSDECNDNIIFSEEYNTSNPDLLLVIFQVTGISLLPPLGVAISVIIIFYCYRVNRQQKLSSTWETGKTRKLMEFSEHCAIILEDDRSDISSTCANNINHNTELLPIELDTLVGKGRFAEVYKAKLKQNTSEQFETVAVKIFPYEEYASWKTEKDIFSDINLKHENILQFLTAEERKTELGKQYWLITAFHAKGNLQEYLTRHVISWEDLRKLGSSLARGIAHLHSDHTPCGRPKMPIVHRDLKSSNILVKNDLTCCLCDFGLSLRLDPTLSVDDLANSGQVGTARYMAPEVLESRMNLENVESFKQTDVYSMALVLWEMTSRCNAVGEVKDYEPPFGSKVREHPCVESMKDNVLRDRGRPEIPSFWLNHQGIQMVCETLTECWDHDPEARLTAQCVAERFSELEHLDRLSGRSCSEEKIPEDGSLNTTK
row,Variant,effect of a mutation on the interaction
1,MSRVPSPPPPAEMSSGPVAESWCYTQIKVVKFSYMWTINNFSFCREEMGEVIKSSTFSSGANDKLKWCLRVNPKGLDEESKDYLSLYLLLVSCPKSEVRAKCKFSILNAKGEETKAMESQRAYRFVQGKDWGFKKFIRRDFLLDEANGLLPDDKLTLFCEVSVVQDSVNISGQNTMNMVKVPECRLADELGGLWENSRFTDCCLCVAGQEFQAHKAILAARSPVFSAMFEHEMEESKKNRVEINDVEPEVFKEMMCFIYTGKAPNLDKMADDLLAAADKYALERLKVMCEDALCSNLSVENAAEILILADLHSADQLKTQAVDFINYHASDVLETSGWKSMVVSHPHLVAEAYRSLASAQCPFLGPPRKRLKQS [F102C],with no effect

# Variants of: B1
# Details: with tnr14_human TNFRSF14, Q92956
# Sequence of tnr14_human TNFRSF14, Q92956 (Q92956 whole entry): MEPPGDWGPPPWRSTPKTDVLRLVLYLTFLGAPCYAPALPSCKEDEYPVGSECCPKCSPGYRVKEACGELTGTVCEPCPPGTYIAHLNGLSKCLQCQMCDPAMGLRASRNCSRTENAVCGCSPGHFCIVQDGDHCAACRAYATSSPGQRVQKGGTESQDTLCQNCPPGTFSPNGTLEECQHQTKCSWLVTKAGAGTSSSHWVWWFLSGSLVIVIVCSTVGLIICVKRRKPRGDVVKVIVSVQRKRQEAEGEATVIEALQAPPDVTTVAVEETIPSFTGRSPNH
row,Variant,effect of a mutation on the interaction
1,MSRVPSPPPPAEMSSGPVAESWCYTQIKVVKFSYMWTINNFSFCREEMGEVIKSSTFSSGANDKLKWCLRVNPKGLDEESKDYLSLYLLLVSCPKSEVRAKCKFSILNAKGEETKAMESQRAYRFVQGKDWGFKKFIRRDFLLDEANGLLPDDKLTLFCEVSVVQDSVNISGQNTMNMVKVPECRLADELGGLWENSRFTDCCLCVAGQEFQAHKAILAARSPVFSAMFEHEMEESKKNRVEINDVEPEVFKEMMCFIYTGKAPNLDKMADDLLAAADKYALERLKVMCEDALCSNLSVENAAEILILADLHSADQLKTQAVDFINYHASDVLETSGWKSMVVSHPHLVAEAYRSLASAQCPFLGPPRKRLKQS [F102C],with no effect

# Variants of: B1
# Details: with tsc2_human TSC2, P49815
row,Variant,effect of a mutation on the interaction
1,MSRVPSPPPPAEMSSGPVAESWCYTQIKVVKFSYMWTINNFSFCREEMGEVIKSSTFSSGANDKLKWCLRVNPKGLDEESKDYLSLYLLLVSCPKSEVRAKCKFSILNAKGEETKAMESQRAYRFVQGKDWGFKKFIRRDFLLDEANGLLPDDKLTLFCEVSVVQDSVNISGQNTMNMVKVPECRLADELGGLWENSRFTDCCLCVAGQEFQAHKAILAARSPVFSAMFEHEMEESKKNRVEINDVEPEVFKEMMCFIYTGKAPNLDKMADDLLAAADKYALERLKVMCEDALCSNLSVENAAEILILADLHSADQLKTQAVDFINYHASDVLETSGWKSMVVSHPHLVAEAYRSLASAQCPFLGPPRKRLKQS [F102C],with no effect

# Variants of: B1
# Details: with tshr_human TSHR
row,Variant,effect of a mutation on the interaction
1,MSRVPSPPPPAEMSSGPVAESWCYTQIKVVKFSYMWTINNFSFCREEMGEVIKSSTFSSGANDKLKWCLRVNPKGLDEESKDYLSLYLLLVSCPKSEVRAKCKFSILNAKGEETKAMESQRAYRFVQGKDWGFKKFIRRDFLLDEANGLLPDDKLTLFCEVSVVQDSVNISGQNTMNMVKVPECRLADELGGLWENSRFTDCCLCVAGQEFQAHKAILAARSPVFSAMFEHEMEESKKNRVEINDVEPEVFKEMMCFIYTGKAPNLDKMADDLLAAADKYALERLKVMCEDALCSNLSVENAAEILILADLHSADQLKTQAVDFINYHASDVLETSGWKSMVVSHPHLVAEAYRSLASAQCPFLGPPRKRLKQS [F102C],with no effect

# Variants of: B1
# Details: with vegfa_human VEGFA
row,Variant,effect of a mutation on the interaction
1,MSRVPSPPPPAEMSSGPVAESWCYTQIKVVKFSYMWTINNFSFCREEMGEVIKSSTFSSGANDKLKWCLRVNPKGLDEESKDYLSLYLLLVSCPKSEVRAKCKFSILNAKGEETKAMESQRAYRFVQGKDWGFKKFIRRDFLLDEANGLLPDDKLTLFCEVSVVQDSVNISGQNTMNMVKVPECRLADELGGLWENSRFTDCCLCVAGQEFQAHKAILAARSPVFSAMFEHEMEESKKNRVEINDVEPEVFKEMMCFIYTGKAPNLDKMADDLLAAADKYALERLKVMCEDALCSNLSVENAAEILILADLHSADQLKTQAVDFINYHASDVLETSGWKSMVVSHPHLVAEAYRSLASAQCPFLGPPRKRLKQS [F102C],with no effect

# Variants of: B1
# Details: with vhl_human VHL
row,Variant,effect of a mutation on the interaction
1,MSRVPSPPPPAEMSSGPVAESWCYTQIKVVKFSYMWTINNFSFCREEMGEVIKSSTFSSGANDKLKWCLRVNPKGLDEESKDYLSLYLLLVSCPKSEVRAKCKFSILNAKGEETKAMESQRAYRFVQGKDWGFKKFIRRDFLLDEANGLLPDDKLTLFCEVSVVQDSVNISGQNTMNMVKVPECRLADELGGLWENSRFTDCCLCVAGQEFQAHKAILAARSPVFSAMFEHEMEESKKNRVEINDVEPEVFKEMMCFIYTGKAPNLDKMADDLLAAADKYALERLKVMCEDALCSNLSVENAAEILILADLHSADQLKTQAVDFINYHASDVLETSGWKSMVVSHPHLVAEAYRSLASAQCPFLGPPRKRLKQS [F102C],with no effect

# Variants of: B1
# Details: with wee1_human WEE1, P30291
row,Variant,effect of a mutation on the interaction
1,MSRVPSPPPPAEMSSGPVAESWCYTQIKVVKFSYMWTINNFSFCREEMGEVIKSSTFSSGANDKLKWCLRVNPKGLDEESKDYLSLYLLLVSCPKSEVRAKCKFSILNAKGEETKAMESQRAYRFVQGKDWGFKKFIRRDFLLDEANGLLPDDKLTLFCEVSVVQDSVNISGQNTMNMVKVPECRLADELGGLWENSRFTDCCLCVAGQEFQAHKAILAARSPVFSAMFEHEMEESKKNRVEINDVEPEVFKEMMCFIYTGKAPNLDKMADDLLAAADKYALERLKVMCEDALCSNLSVENAAEILILADLHSADQLKTQAVDFINYHASDVLETSGWKSMVVSHPHLVAEAYRSLASAQCPFLGPPRKRLKQS [F102C],with no effect

# Variants of: B1
# Details: with wwtr1_human WWTR1, Q9GZV5
# Sequence of wwtr1_human WWTR1, Q9GZV5 (Q9GZV5 whole entry): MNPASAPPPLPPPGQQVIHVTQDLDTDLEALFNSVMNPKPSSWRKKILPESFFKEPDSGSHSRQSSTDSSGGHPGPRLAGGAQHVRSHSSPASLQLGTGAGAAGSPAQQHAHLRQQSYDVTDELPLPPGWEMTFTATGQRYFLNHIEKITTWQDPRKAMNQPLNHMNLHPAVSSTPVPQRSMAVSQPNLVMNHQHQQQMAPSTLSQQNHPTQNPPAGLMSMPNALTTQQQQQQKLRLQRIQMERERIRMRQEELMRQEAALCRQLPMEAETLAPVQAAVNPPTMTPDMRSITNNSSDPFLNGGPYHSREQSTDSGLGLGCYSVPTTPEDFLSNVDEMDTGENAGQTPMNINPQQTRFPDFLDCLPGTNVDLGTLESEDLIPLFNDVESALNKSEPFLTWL
row,Variant,effect of a mutation on the interaction
1,MSRVPSPPPPAEMSSGPVAESWCYTQIKVVKFSYMWTINNFSFCREEMGEVIKSSTFSSGANDKLKWCLRVNPKGLDEESKDYLSLYLLLVSCPKSEVRAKCKFSILNAKGEETKAMESQRAYRFVQGKDWGFKKFIRRDFLLDEANGLLPDDKLTLFCEVSVVQDSVNISGQNTMNMVKVPECRLADELGGLWENSRFTDCCLCVAGQEFQAHKAILAARSPVFSAMFEHEMEESKKNRVEINDVEPEVFKEMMCFIYTGKAPNLDKMADDLLAAADKYALERLKVMCEDALCSNLSVENAAEILILADLHSADQLKTQAVDFINYHASDVLETSGWKSMVVSHPHLVAEAYRSLASAQCPFLGPPRKRLKQS [F102C],with no effect

# Variants of: B1
# Details: with xpo1_human XPO1, O14980
# Sequence of xpo1_human XPO1, O14980 (O14980 whole entry): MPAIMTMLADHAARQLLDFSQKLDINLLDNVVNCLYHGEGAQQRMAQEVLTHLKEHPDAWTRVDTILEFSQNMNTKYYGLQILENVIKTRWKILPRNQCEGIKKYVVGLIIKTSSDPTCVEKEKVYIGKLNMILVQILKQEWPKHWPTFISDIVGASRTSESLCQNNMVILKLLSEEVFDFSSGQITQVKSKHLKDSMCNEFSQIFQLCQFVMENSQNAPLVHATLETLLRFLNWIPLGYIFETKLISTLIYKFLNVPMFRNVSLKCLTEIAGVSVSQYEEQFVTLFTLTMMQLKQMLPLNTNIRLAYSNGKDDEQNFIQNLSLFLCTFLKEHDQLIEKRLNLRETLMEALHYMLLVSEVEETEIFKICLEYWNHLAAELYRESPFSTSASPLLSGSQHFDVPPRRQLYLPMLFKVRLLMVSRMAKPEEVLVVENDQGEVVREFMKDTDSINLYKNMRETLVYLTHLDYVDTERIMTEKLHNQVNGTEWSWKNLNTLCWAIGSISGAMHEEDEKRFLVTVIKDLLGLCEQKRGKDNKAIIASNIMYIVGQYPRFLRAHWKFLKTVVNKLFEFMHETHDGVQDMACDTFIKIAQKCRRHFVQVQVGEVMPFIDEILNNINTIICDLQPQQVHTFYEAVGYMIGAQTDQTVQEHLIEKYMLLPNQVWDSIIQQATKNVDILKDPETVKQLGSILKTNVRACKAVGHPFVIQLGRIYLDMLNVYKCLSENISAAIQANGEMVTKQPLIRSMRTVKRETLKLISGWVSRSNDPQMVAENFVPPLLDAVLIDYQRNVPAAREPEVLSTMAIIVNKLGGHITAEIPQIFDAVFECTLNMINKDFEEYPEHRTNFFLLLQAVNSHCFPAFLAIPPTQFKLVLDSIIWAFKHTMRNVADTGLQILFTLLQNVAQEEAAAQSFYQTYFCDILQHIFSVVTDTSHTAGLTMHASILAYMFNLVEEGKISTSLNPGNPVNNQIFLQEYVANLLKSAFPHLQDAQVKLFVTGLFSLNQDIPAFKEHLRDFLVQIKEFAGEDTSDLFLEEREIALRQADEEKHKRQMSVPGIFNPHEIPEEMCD
row,Variant,effect of a mutation on the interaction
1,MSRVPSPPPPAEMSSGPVAESWCYTQIKVVKFSYMWTINNFSFCREEMGEVIKSSTFSSGANDKLKWCLRVNPKGLDEESKDYLSLYLLLVSCPKSEVRAKCKFSILNAKGEETKAMESQRAYRFVQGKDWGFKKFIRRDFLLDEANGLLPDDKLTLFCEVSVVQDSVNISGQNTMNMVKVPECRLADELGGLWENSRFTDCCLCVAGQEFQAHKAILAARSPVFSAMFEHEMEESKKNRVEINDVEPEVFKEMMCFIYTGKAPNLDKMADDLLAAADKYALERLKVMCEDALCSNLSVENAAEILILADLHSADQLKTQAVDFINYHASDVLETSGWKSMVVSHPHLVAEAYRSLASAQCPFLGPPRKRLKQS [F102C],with no effect

# Variants of: B1
# Details: with igf1r_human IGF1R
row,Variant,effect of a mutation on the interaction
1,MSRVPSPPPPAEMSSGPVAESWCYTQIKVVKFSYMWTINNFSFCREEMGEVIKSSTFSSGANDKLKWCLRVNPKGLDEESKDYLSLYLLLVSCPKSEVRAKCKFSILNAKGEETKAMESQRAYRFVQGKDWGFKKFIRRDFLLDEANGLLPDDKLTLFCEVSVVQDSVNISGQNTMNMVKVPECRLADELGGLWENSRFTDCCLCVAGQEFQAHKAILAARSPVFSAMFEHEMEESKKNRVEINDVEPEVFKEMMCFIYTGKAPNLDKMADDLLAAADKYALERLKVMCEDALCSNLSVENAAEILILADLHSADQLKTQAVDFINYHASDVLETSGWKSMVVSHPHLVAEAYRSLASAQCPFLGPPRKRLKQS [F102C],causing an interaction

# Variants of: B1
# Details: with etv1_human ETV1, P50549
# Sequence of etv1_human ETV1, P50549 (P50549 whole entry): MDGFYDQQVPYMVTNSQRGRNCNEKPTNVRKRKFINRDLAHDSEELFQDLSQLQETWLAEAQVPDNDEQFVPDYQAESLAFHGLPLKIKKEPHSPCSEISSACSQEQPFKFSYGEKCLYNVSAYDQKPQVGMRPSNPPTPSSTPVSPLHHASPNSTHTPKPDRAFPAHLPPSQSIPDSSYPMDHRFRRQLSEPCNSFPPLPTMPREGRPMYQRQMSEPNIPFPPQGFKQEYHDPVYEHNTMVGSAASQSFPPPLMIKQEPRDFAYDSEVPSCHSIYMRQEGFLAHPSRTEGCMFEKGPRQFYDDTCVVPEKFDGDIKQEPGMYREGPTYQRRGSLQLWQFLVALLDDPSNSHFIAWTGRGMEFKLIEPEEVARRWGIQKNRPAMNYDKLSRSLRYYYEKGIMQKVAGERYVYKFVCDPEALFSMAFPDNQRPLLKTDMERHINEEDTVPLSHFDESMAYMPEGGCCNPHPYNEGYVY
row,Variant,effect of a mutation on the interaction
1,MSRVPSPPPPAEMSSGPVAESWCYTQIKVVKFSYMWTINNFSFCREEMGEVIKSSTFSSGANDKLKWCLRVNPKGLDEESKDYLSLYLLLVSCPKSEVRAKCKFSILNAKGEETKAMESQRAYRFVQGKDWGFKKFIRRDFLLDEANGLLPDDKLTLFCEVSVVQDSVNISGQNTMNMVKVPECRLADELGGLWENSRFTDCCLCVAGQEFQAHKAILAARSPVFSAMFEHEMEESKKNRVEINDVEPEVFKEMMCFIYTGKAPNLDKMADDLLAAADKYALERLKVMCEDALCSNLSVENAAEILILADLHSADQLKTQAVDFINYHASDVLETSGWKSMVVSHPHLVAEAYRSLASAQCPFLGPPRKRLKQS [F102C],disrupting interaction strength

# Variants of: B1
# Details: with pk3ca_human PIK3CA
row,Variant,effect of a mutation on the interaction
1,MSRVPSPPPPAEMSSGPVAESWCYTQIKVVKFSYMWTINNFSFCREEMGEVIKSSTFSSGANDKLKWCLRVNPKGLDEESKDYLSLYLLLVSCPKSEVRAKCKFSILNAKGEETKAMESQRAYRFVQGKDWGFKKFIRRDFLLDEANGLLPDDKLTLFCEVSVVQDSVNISGQNTMNMVKVPECRLADELGGLWENSRFTDCCLCVAGQEFQAHKAILAARSPVFSAMFEHEMEESKKNRVEINDVEPEVFKEMMCFIYTGKAPNLDKMADDLLAAADKYALERLKVMCEDALCSNLSVENAAEILILADLHSADQLKTQAVDFINYHASDVLETSGWKSMVVSHPHLVAEAYRSLASAQCPFLGPPRKRLKQS [F102C],increasing interaction strength
